“Also recorded” adds a separate entry of the source.
B1: hemocoagulase (protein)
chain 1: DCSSGWSSYEGHCYKVFKQSKTWADAESFCTKQVNGGHLVSLESSGEADFVGQLLAQKLKSAKLHVWLGLRAQNKEKQCSLQWSDGSSLSYENWLEEESKKCLGVHLETGFHKWENFYCEQQDPFVCEA
chain 2: DCPSDWSSYEGHCYKPFNEPKNWADAENFCTKQHTGGHLVSFQSTEEADFVVKLAFQTFDYGLFWFGLSKLWNQCNWQWSNAAMLKYTDWAEESYCVYFKSTNNKWRSLTCRMLANFVCEFQA

How the values were obtained:
[1] = system: hemocoagulase of Agkistrodon acutus; test: effect of PMSF on the agglutination time of the hemocoagulase; type: biochemical
Protocol: (§1) 1% bovine fibrinogen (Sigma Company) solution was prepared with physiological saline.
(§2) The operational steps of the experiment were as follows:
(§3) (1) 2 ml 1% bovine fibrinogen solution was kept at constant temperature of 37° C. for 5 min;
(§4) (2) 3 tubes were respectively marked with 1 #, 2 #, 3 #, then 200 μl hemocoagulase solution (5 u/ml) diluted one time with distilled water was added into each of 3 tubes;
(§5) (3) 10 μl distilled water was added into tube 1#, 10 μl isopropanol was added into tube 2#, and 10 μl PMSF was added into tube 3#, and the tubes were kept at constant temperature of 37° C. in water bath for 5 min;
(§6) (4) Observations of the agglutination experiments were carried out separately in the order of the numbering of the above tubes. 200 μl 1% bovine fibrinogen solution at constant temperature was added into each of the tubes respectively, followed by counting time immediately and shaking the tube gently; then the tube was kept to stand in water bath of 37° C. The agglutination reaction was observed. When the solution was completely coagulated, time-counting was finished.

bovine fibrinogen [2] = test: agglutination experiment, time to complete coagulation of bovine fibrinogen solution; type: biochemical; conditions: 200 μl hemocoagulase solution (5 u/ml), 200 μl 1% bovine fibrinogen, 37° C.
Protocol: as §1, §2, §3, §4, §5, §6

[3] = isoelectric focusing electrophoresis analysis; type: physicochemical
Protocol: (§7) The above dialyzed enzyme solution was loaded on a pre-equilibrated DEAE-Sepharose Fast Flow anion exchange chromatography column, and the column was eluted with 0.01M, pH7.4 PBS. Then, the stepwise elution was conducted with 0.01M, pH7.4 PBS containing 0.02M, 0.04M, 0.06M, 1.0M NaCl respectively, and the second eluting peak of 0.06M NaC1 eluent was collected to obtain 1,050 ml of eluent. […] The 1,050 ml eluent was ultra-filtrated to 135 ml by Millipore Pellicon 2 tangential flow ultra-filter (0.1M^2 cut off 5 k membrane). The 135 ml ultra-filtrated solution was poured into a dialysis bag and dialyzed against deionized water for 24 hours, and the deionized water was changed 3 times during the dialysis. After dialysis, the volume of the enzyme solution is 159 ml, and the determined content of the total protein in the solution is 240 mg, the determined specific activity of the enzyme is 195 u/mg protein and a final yield of 0.8%. The protein has a HPLC purity of 98.2%, and two protein bands were shown by reduced SDS-PAGE with the molecular weight of about 15 kDa and 14.5 kDa, respectively. The enzyme has an isoelectric point(pI) of 5.5 by isoelectric focusing electrophoresis analysis.

human fibrinogen = test: hydrolyzing human fibrinogen with the hemocoagulase, SDS-PAGE; type: biochemical; conditions: for band of alpha subunit of human fibrinogen: hemocoagulase 1 unit, 37° C.
Protocol: A 4 mg/ml human fibrinogen solution was prepared with 50 mM Tris-HCl buffer solution(pH 7.4). 0.5 ml human fibrinogen solution were respectively added into each of 5 tubes; 1 activity unit of the purified hemocoagulase was separately added into each of 4 tubes according to 4 different time intervals of heat preservation time for hydrolyzing, and the tubes were kept at 37° C. in water bath for 4 h, 2 h, 1 h and 0.5 h, respectively; after that, SDS-PAGE was carried out immediately to observe the hydrolyzing degree of the human fibrinogen. Meanwhile, another tube containing 0.5 ml of the human fibrinogen solution was kept at 37° C. in water bath for 4 h as a control.

bovine fibrinogen [4] = test: enzymatic activity assay (bovine fibrinogen assay or normal human plasma assay); type: biochemical; conditions: hemocoagulase of Example 2 further purified by HPLC
Protocol: as §7, with “The protein has a HPLC purity of 98.2%, and two protein bands were shown by reduced SDS-PAGE with the molecular weight of about 15 kDa and 14.5 kDa, respectively. The enzyme has an isoelectric point(pI) of 5.5 by isoelectric focusing electrophoresis analysis.” left out
1 ml 1.0% bovine fibrinogen (Sigma company) prepared with physiological saline was added to a tube, kept at 37±0.5° C. in water bath for 3 min, followed by adding 1 ml 37±0.5° C. preheated enzymatic solution to be determined was added into the tube while counting time immediately; if white flocs appeared in the bovine fibrinogen solution by shaking it within 120±30 seconds, the activity unit of the enzymatic solution is determined to be 1 u/ml. […]

Molecule | Agglutination time ([1]; 10 μl PMSF (4 mg/ml in isopropanol), 200 μl hemocoagulase solution (5 u/ml), 200 μl 1% bovine fibrinogen, 37° C.) [s] | inhibition of the activity of the hemocoagulase ([1]; 100 ppm PMSF) | Agglutination time (bovine fibrinogen [2]; 10 μl distilled water) [s] | Agglutination time (bovine fibrinogen [2]; 10 μl isopropanol) [s] | isoelectric point (pI) [3] | hydrolysis of the alpha chain (alpha subunit) of human fibrinogen (human fibrinogen) | band of alpha subunit of human fibrinogen (human fibrinogen; treated for 0.5 h and 1 h) | band of alpha subunit of human fibrinogen (human fibrinogen; treated for 2 h and 4 h) | enzyme activity of the solution (bovine fibrinogen [4]) [u/ml]
O=S(=O)(F)Cc1ccccc1 [PMSF, Phenylmethanesulfonyl fluoride] | > 600 | completely inhibits | – | – | – | – | – | – | –
B1 | – | – | 50 | 50 | 5.5 | able to hydrolyze the alpha chain of human fibrinogen; also recorded: has the function of hydrolyzing the alpha subunit of the human fibrinogen | became gradually light | disappeared completely | 10

Source: patent US8476054B2, “Thrombin-like enzyme of Agkistrodon acutus” (Konruns Pharmaceutical Co., Ltd., priority 2008, dated 2013)
